According to patent US20100104557A1:

What was measured:
[1] = target: His-tagged HM1.24 antigen, residues N49-A163 of the extracellular domain (human) (UniProt Q10589); test: Biacore (SPR): His-tagged HM1.24 antigen coupled directly to the chip (NHS chemistry), antibody as analyte; separate kd and ka fitting
[2] = target: His-tagged HM1.24 antigen, residues N49-A163 of the extracellular domain (human) (UniProt Q10589); test: Biacore (SPR): His-tagged HM1.24 antigen coupled directly to the chip (NHS chemistry), antibody as analyte; simultaneous (global Langmuir) fitting
[3] = target: His-tagged HM1.24 antigen, residues N49-A163 of the extracellular domain (human) (UniProt Q10589); test: Biacore (SPR): antibody on a protein A chip, HM1.24 antigen as analyte; antibody untreated
[4] = target: His-tagged HM1.24 antigen, residues N49-A163 of the extracellular domain (human) (UniProt Q10589); test: Biacore (SPR): antibody on a protein A chip, HM1.24 antigen as analyte; antibody post incubation (pH 9, 37 C, 4 days)

Sequence of His-tagged HM1.24 antigen, residues N49-A163 of the extracellular domain (human) (Q10589 49-163): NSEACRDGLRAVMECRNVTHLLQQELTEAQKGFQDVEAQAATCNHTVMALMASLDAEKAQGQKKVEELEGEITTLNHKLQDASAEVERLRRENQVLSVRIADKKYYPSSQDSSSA

- Kd [1]: 0.0732 nM
- koff [1]: 7.02e-05 s⁻¹
- kon [1]: 958000 M⁻¹ s⁻¹
- Kd [2]: 0.0826 nM
- koff [2]: 7.27e-05 s⁻¹
- kon [2]: 879000 M⁻¹ s⁻¹
- koff [3]: 0.00287 s⁻¹
- koff [4]: 0.00257 s⁻¹
B1: Antibody comprising the HM1.24_H2.2 heavy chain variant and the HM1.24_L4 light chain (antibody, V domains shown)
VH: EVQLVESGGGLVKPGGSLRLSCAASGYTFTPYWMQWVRQAPGKGLEWMGSIFPGSGDTRYSQSFQGQVTISADKSISTAYMELSSLRSEDTAVYYCARGLRRGGYYFDYWGQGTLVTVSS
VL: DIVMTQSPLSLPVTLGQPASISCKASQDVNTAVAWYLQKPGKSPKLLIYSASNRYTGVPDRITGSGSGTDFTLKISRVEAEDVGVYYCQQHYSTPFTFGSGTKLEIKR
